Measured values as given in US20080301824A1 (CEDARS SINAI MEDICAL CENTER, published 2008).

Experiments:
[1] = target: T1, GFP-syt11 (GFP-tagged full-length human synaptotagmin XI) (human, UniProt P42212 1-238 = GFP); assay: co-IP with anti-HA agarose from HEK293 cells, anti-GFP blot
T1 construct: also called GFP-sytXI; GFP-sytxI
Method: To determine which domain of parkin binds to synaptotagmin, several truncated parkins tagged with the HA epitope were constructed (FIG. 3A). […] Each truncated construct was coexpressed with GFP-sytxI. After 24 h, protein extracts were immunoprecipitated with rat anti-HA-conjugated agarose followed by western blot detection with anti-GFP antibody.

[2] = target: endogenous parkin of human cerebral cortex (human, UniProt O60260 1-465, limits assumed); assay: co-IP from human cerebral cortex extract
Method: To determine whether parkin interacted with endogenous sytXI, protein extract from human cerebral cortex was immunoprecipitated with the anti-parka antibody. For co-immunoprecipitation of human brain extracts, a 1.4 g sample of human cerebral cortex was chopped into small pieces and resuspended in 7 ml of cold lysis buffer (100 mM Tris-HCl, pH 7.5, 150 mM NaCl, 1% Triton X-100, 0.05% SDS, 0.05% deoxycholic acid, and 1 protease inhibitor pellet/10 ml buffer). The cell suspension was homogenized by a glass homogenizer. Protein lysate was aliquoted into 1 ml aliquots and microfuged at top speed in the cold room. Protein extracts were precleared with rabbit IgG conjugated agarose and protein A conjugated agarose for 3 h at 4° C., and the precleared lysate was incubated with rabbit anti-parkA or mouse anti-sytXI antibody overnight in the cold room. The primary antibodies were pulled down with protein A conjugated agarose for 4 h at 4° C. The final pellets were washed five times with co-ip buffer, and the coprecipitates were eluted from the secondary antibody-conjugated agarose with SDS-PAGE buffer.

[3] = target: T2, GAL4 binding domain-Hrs fusion encoded by pGBT9-Hrs (hepatocyte growth factor regulated kinase substrate) (UniProt P04386 1-147; O14964 1-777, limits assumed); assay: yeast two-hybrid filter assay
T2 construct: Unrelated bait control
Method: (§1) As previously described (Shibata et al., Hum. Mol. Genet. 9:1303-1313 (2000) and Scoles et al., Nat. Genet. 18:354-359 (1998)), the bait plasmid was cotransformed in yeast strain Y190 and grown on synthetic media without leucine, tryptophan, and histidine, and with 25 mM 3-amino-1,2,4-triazole and 2% glucose. The Y190 strain allows for nutritional selection of the HIS3 gene that allows growth in media lacking histidine and color selection using the LacZ gene encoding β-galactosidase. The β-galactosidase reporter was assayed on stamped nitrocellulose filters by incubating freeze-fractured colonies in Z-buffer (60 mM Na₂HPO₄, 40 mM NaH₂PO₄, 10 mM KCl, 1 mM MgSO₄, pH 7.0, 0.03 mM β-mercaptoethanol, and 2.5 μM X-gal) at 37° C. for 15 min to 8 hr. Positive clones were restreaked on synthetic media without leucine or tryptophan, and retested for β-galactosidase activity, and then pGAD10. “prey” plasmids were isolated.

[4] = target: T3, GAL4 binding domain alone (pGBT9 vector control) (UniProt P04386 1-147); assay: yeast two-hybrid filter assay
T3 construct: Empty bait vector control; also called negative control vector pGBT9
Method: as §1

[5] = target: T4, GAL4 binding domain-NF2 fusion encoded by pGBT9-NF2 (schwannomin tumor suppressor) (UniProt P04386 1-147; P35240 1-595, limits assumed); assay: yeast two-hybrid filter assay
T4 construct: also called pGBT9-NF1
Method: as §1

[6] = target: GAL4 binding domain-parkin(1-465) fusion encoded by pGBT9-parkin(1-465) (UniProt P04386 1-147; O60260 1-465); assay: cell-based or functional assay
[7] = target: T5, endogenous parkin of PC12 cells (UniProt Q9JK66 1-465); assay: co-IP with mouse anti-syt1 from PC12 extracts
T5 construct: also called 50 kDa parkin band
T5 sequence (looked up): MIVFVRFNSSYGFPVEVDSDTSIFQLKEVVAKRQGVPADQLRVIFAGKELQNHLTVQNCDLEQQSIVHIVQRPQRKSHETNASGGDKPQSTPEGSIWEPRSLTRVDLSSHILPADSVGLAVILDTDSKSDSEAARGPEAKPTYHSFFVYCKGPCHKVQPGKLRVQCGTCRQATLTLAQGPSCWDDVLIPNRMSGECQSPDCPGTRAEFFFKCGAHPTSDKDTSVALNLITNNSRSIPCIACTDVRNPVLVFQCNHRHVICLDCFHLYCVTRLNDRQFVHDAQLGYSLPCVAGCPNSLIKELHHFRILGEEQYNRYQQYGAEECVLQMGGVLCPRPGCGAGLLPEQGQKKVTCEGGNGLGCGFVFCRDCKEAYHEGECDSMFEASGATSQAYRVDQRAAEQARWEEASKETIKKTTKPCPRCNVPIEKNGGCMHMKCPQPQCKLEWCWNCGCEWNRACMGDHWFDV
Method: PC12 cells were grown in DMEM containing 10% heat-inactivated serum, 5% fetal bovine serum, and penicillin/streptomycin in a 37° C. incubator with 10% CO₂. Media were changed every 3 days. PC12 cells were grown for 48 hours, and proteins were extracted in co-ip buffer (50 mM Tris-HCl, pH 7.5, 0.2% Triton X-100, 150 mM NaCl, and one protease inhibitor pellet (Roche) per 10 ml buffer). Protein extracts were precleared with mouse or rabbit IgG conjugated agarose and incubated with the respective antibodies overnight in the cold room. The primary antibodies were pulled down with anti-mouse or anti-rabbit IgG conjugate agarose for two hours. The final pellets were washed 7 times with co-ip buffer, and the coprecipitates were eluted from the secondary antibody-conjugated agarose with SDS-PAGE buffer. Co-ip products were immunoblotted with either anti-parkin or anti-syt antibodies.

[8] = target: T6, hemaglutinin-parkin (HA-parkin), full-length wild type (UniProt O60260 1-465); assay: co-IP
T6 construct: also called pCMV-HA-parkin

B1: HA-tagged truncated parkin p294-465 (enzyme, UniProt O60260 294-465, looked up, not shown: small tags and cut ends)
chain: PNSLIKELHHFRILGEEQYNRYQQYGAEECVLQMGGVLCPRPGCGAGLLPEPDQRKVTCEGGNGLGCGFAFCRECKEAYHEGECSAVFEASGTTTQAYRVDERAAEQARWEAASKETIKKTTKPCPRCHVPVEKNGGCMHMKCPQPQCRLEWCWNCGCEWNRVCMGDHWFDV
binding result [1]: no binding

B2: HA-tagged truncated parkin p294-385 (enzyme, UniProt O60260 294-385, looked up, not shown: small tags and cut ends)
chain: PNSLIKELHHFRILGEEQYNRYQQYGAEECVLQMGGVLCPRPGCGAGLLPEPDQRKVTCEGGNGLGCGFAFCRECKEAYHEGECSAVFEASG
notes: range 294-385
binding result [1]: no binding

B3: endogenous synaptotagmin XI of human brain (other)
chain: MAEITNIRPSFDVSPVVAGLIGASVLVVCVSVTVFVWSCCHQQAEKKHKNPPYKFIHMLKGISIYPETLSNKKKIIKVRRDKDGPGREGGRRNLLVDAAEAGLLSRDKDPRGPSSGSCIDQLPIKMDYGEELRSPITSLTPGESKTTSPSSPEEDVMLGSLTFSVDYNFPKKALVVTIQEAHGLPVMDDQTQGSDPYIKMTILPDKRHRVKTRVLRKTLDPVFDETFTFYVIPYSQLQDLVLHFLVLSFDRFSRDDVIGEVMVPLAGVDPSTGKVQLTRDIIKRNIQKCISRGELQVSLSYQPVAQRMTVVVLKARHLPKMDITGLSGNPYVKVNVYYGRKRIAKKKTHVKKCTLNPIFNESFIYDIPTDLLPDISIEFLVIDFDRTTKNEVVGRLILGAHSVTASGAEHWREVCESPRKPVAKWHSLSEY
notes: Endogenous protein; also called endogenous sytXI; sytXI protein band
binding result [2]: binds

B4: GAL4 activation domain-MP23a fusion (partial clone of human synapsin-like protein, SLP, in pGAD10) (other, not shown: large carriers)
chain: SFSSSPPPGPPRIAAAAFSSPGRCGCGCPCHLLTAEPPTQDGGRLSLGPEQNLGPHPQKPGCKRAAPTYESCIKFPTRLRFIRLEVEQHHLVDIVAVTTKTGKTEATPHGMRLMNELLQPGCQGSEEKPLRPCFLIISYA
notes: also called SLP (MP23a)
binding result [3]: no binding
binding result [4]: no binding
binding result [5]: no binding
β-galactosidase activity in yeast two-hybrid liquid assay, against negative control vector pGBT9 [6]: ~30 fold

B5: HA-tagged truncated parkin p1-203 (enzyme, UniProt O60260 1-203, looked up, not shown: small tags and cut ends)
chain: MIVFVRFNSSHGFPVEVDSDTSIFQLKEVVAKRQGVPADQLRVIFAGKELRNDWTVQNCDLDQQSIVHIVQRPWRKGQEMNATGGDDPRNAAGGCEREPQSLTRVDLSSSVLPGDSVGLAVILHTDSRKDSPPAGSPAGRSIYNSFYVYCKGPCQRVQPGKLRVQCSTCRQATLTLTQGPSCWDDVLIPNRMSGECQSPHCPG
binding result [1]: no binding

B6: endogenous synaptotagmin 1 of PC12 cells (other, UniProt P21707 1-421, looked up)
chain: MVSASHPEALAAPVTTVATLVPHNATEPASPGEGKEDAFSKLKQKFMNELHKIPLPPWALIAIAIVAVLLVVTCCFCVCKKCLFKKKNKKKGKEKGGKNAINMKDVKDLGKTMKDQALKDDDAETGLTDGEEKEEPKEEEKLGKLQYSLDYDFQNNQLLVGIIQAAELPALDMGGTSDPYVKVFLLPDKKKKFETKVHRKTLNPVFNEQFTFKVPYSELGGKTLVMAVYDFDRFSKHDIIGEFKVPMNTVDFGHVTEEWRDLQSAEKEEQEKLGDICFSLRYVPTAGKLTVVILEAKNLKKMDVGGLSDPYVKIHLMQNGKRLKKKKTTIKKNTLNPYYNESFSFEVPFEQIQKVQVVVTVLDYDKIGKNDAIGKVFVGYNSTGAELRHWSDMLANPRRPIAQWHTLQVEEEVDAMLAVKK
notes: also called syt1; endogenous syt1
binding result [7]: binds

B7: full length synapsin-like protein (SLP), GFP fusion (other)
chain: MAQHIQLPGVKALVYVCFTAVLGHSVGWHRGHFGQHGLGRGAVRTRLWIRPGHATFLGQRRAGHQCRFPGSRRRQLLKEPKPSPAAPSSFSSSPPPGPPRIAAAAFSSPGRCGCGCPCHLLTAEPPTQDGGRLSLGPEQNLGPHPQKPGCKRAAPTYESCIKFPTRLRFIRLEVEQHHLVDIVAVTTKTGKTEATPHGMRLMNELLQPGCQGSEEKPLRPCFLIISYA
notes: the construct is inferred; also called the full length protein; not shown: green fluorescent protein (GFP)
binding result [8]: binds
